Experiment in all cases: Yeast surface display (YSD) FACS binding
(Flow cytometry measures light scatter and fluorescence of single cells or particles in a stream.)

For test [1], the target named is T1, CCL5_HUMAN (Homo sapiens, UniProt P13501).
T1 sequence (P13501 24-91): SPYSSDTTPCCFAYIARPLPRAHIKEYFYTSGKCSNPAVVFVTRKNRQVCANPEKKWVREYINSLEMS
An outline of the steps: (§1)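 Yeast clones displaying tick peptides were re-tested by FACS with labelled chemokine. Binding = % of peptide-expressing yeast above a background threshold set with streptavidin-Alexa647 alone; the mean percent shift was used where several clones were isolated. Confirmed binding ("YES") required >3-fold over background mean fluorescence intensity.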

For test [2], the target named is T2, CCL8_HUMAN (Homo sapiens, UniProt P80075).
T2 sequence (P80075 24-99): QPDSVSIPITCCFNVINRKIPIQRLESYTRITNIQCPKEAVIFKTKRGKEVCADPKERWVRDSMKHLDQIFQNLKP
An outline of the steps: as §1

Test [3] concerns the target T3, CXCL8_HUMAN (Homo sapiens, UniProt P10145).
T3 sequence (P10145 21-99): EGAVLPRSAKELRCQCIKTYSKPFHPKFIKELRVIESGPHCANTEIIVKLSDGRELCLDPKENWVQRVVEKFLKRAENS
The arrangement: label (chemical). Conditions: yeast surface display. The procedure, abridged:
(§2)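 Yeast clones displaying tick peptides were re-tested by FACS with labelled chemokine detected by streptavidin-Alexa conjugate. Binding was scored as % of peptide-expressing cells above a background set with streptavidin-Alexa alone, averaged over independent clones. In the screen tables, >3-fold over background mean fluorescence intensity was scored as binding.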

For test [4], the target named is CCL20_HUMAN (Homo sapiens, UniProt P78556). An outline of the steps:
as §1

In test [5] the target is T4, CCL3_HUMAN (Homo sapiens, UniProt P10147).
T4 sequence (P10147 24-92): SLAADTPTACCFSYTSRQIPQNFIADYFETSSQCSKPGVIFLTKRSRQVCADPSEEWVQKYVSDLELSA
An outline of the steps: as §1

In test [6] the target is T5, CCL17_HUMAN (Homo sapiens, UniProt Q92583).
T5 sequence (Q92583 24-94): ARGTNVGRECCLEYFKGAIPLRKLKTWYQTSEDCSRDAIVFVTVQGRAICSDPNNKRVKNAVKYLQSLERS
The procedure, abridged: as §1

For test [7], the target named is CCL11_HUMAN (Homo sapiens, UniProt P51671). An outline of the steps: as §1
Sequence of CCL11_HUMAN (P51671 24-97): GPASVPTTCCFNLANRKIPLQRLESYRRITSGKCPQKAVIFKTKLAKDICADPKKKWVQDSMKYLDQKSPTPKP
Test [8] has as its target T6, CCL18_HUMAN (Homo sapiens, UniProt P55774).
T6 sequence (P55774 21-89): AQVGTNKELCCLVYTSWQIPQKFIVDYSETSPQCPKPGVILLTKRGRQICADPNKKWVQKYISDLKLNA
An outline of the steps: as §1

Test [9] concerns the target T7, CCL25_HUMAN (Homo sapiens, UniProt O15444).
T7 sequence (O15444 24-150): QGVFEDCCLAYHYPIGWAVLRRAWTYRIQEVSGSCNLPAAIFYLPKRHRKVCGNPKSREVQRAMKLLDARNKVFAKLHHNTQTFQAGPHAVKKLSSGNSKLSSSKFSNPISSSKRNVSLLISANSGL
The procedure, abridged:
as §1

Test [10] deals with CXCL12_HUMAN (Homo sapiens, UniProt P48061). To be noted: yeast surface display. An outline of the steps: as §2
Sequence of CXCL12_HUMAN (P48061 22-93): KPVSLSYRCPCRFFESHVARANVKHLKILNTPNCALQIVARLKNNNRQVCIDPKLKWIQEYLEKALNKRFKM

Sequence of CCL20_HUMAN (P78556 27-96): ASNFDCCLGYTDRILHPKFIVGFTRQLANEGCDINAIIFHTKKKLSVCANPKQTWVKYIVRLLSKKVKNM

B1: P698_RHISA: tick CKBP, Rhipicephalus sanguineus (protein, listed as Rhipicephalus sanguineus)
chain: NEDDSSDYYDASPMNCSSMSVNSTMGWLSMNCTMSCNGTTFPLSNSTHCFHSYTNLTVQSRMETMTYNCSVGTCSNGTCVENGTTTTCW
In the case of B1, in test [1], the “Binding to CCL5_HUMAN, YSD” value is reported as “YES (An arbitrary threshold of >3 fold over background mean fluorescence intensity was chosen to describe confirmed re-tests. Where binding was detected data are indicated as “YES”)”. In test [2], the “Binding to CCL8_HUMAN, YSD” value is “YES (An arbitrary threshold of >3 fold over background mean fluorescence intensity was chosen to describe confirmed re-tests. Where binding was detected data are indicated as “YES”)”.

B2: P1030_AMBPA: tick CKBP, Amblyomma parvum (protein, listed as Amblyomma parvum)
chain: GPPSIPGNESIPGCGDAGTTTAPEDNPKHYGTLTDKKGCTLPIIGTWMTAVDHQHLQGTRGERRGPTGKVNLPASCRKNCHGRQEILRDGIPCRKVVGNPKGSKKHLKSGCLRGKCLAGQCVNDGRRISCYVPRNITDTEPTPGLLAE
As for B2, the “Binding to CXCL8_HUMAN, YSD” value in test [3] is reported as “YES (An arbitrary threshold of >3 fold over background mean fluorescence intensity was chosen to describe confirmed re-tests. Where binding was detected data are indicated as “YES”)”. The “Binding to CCL20_HUMAN, YSD” value in [4] is on record as “YES (An arbitrary threshold of >3 fold over background mean fluorescence intensity was chosen to describe confirmed re-tests. Where binding was detected data are indicated as “YES”)”. The “Binding to CCL3_HUMAN, YSD” value in test [5] is recorded as “YES (An arbitrary threshold of >3 fold over background mean fluorescence intensity was chosen to describe confirmed re-tests. Where binding was detected data are indicated as “YES”)”. Besides, in test [1], the “Binding to CCL5_HUMAN, YSD” value was “YES (An arbitrary threshold of >3 fold over background mean fluorescence intensity was chosen to describe confirmed re-tests. Where binding was detected data are indicated as “YES”)”. In test [6], the “Binding to CCL17_HUMAN, YSD” value is “YES (An arbitrary threshold of >3 fold over background mean fluorescence intensity was chosen to describe confirmed re-tests. Where binding was detected data are indicated as “YES”)”. Moreover, the “Binding to CCL11_HUMAN, YSD” value in test [7] is given as “YES (An arbitrary threshold of >3 fold over background mean fluorescence intensity was chosen to describe confirmed re-tests. Where binding was detected data are indicated as “YES”)”. In addition, the “Binding to CCL8_HUMAN, YSD” value in test [2] is “YES (An arbitrary threshold of >3 fold over background mean fluorescence intensity was chosen to describe confirmed re-tests. Where binding was detected data are indicated as “YES”)”.

B3: P1011_AMBTR: tick CKBP, Amblyomma triste (protein)
chain: EKDTPKNIPGCEDAGTTAAPPADNPKHYAVYTDKNGCTFKVIGTWMTKEDHRRLPVSLRRVRASSGRVKLPASCQKICKHSVKKFPEGTPCRLVTRDPIKGKNHIKNGCIRGYCSSGVCVSDNRSISCYVLPNNTELTSPSGSFAE
modifications: Amblyomma triste
For B3, in [8], the “Binding to CCL18_HUMAN, YSD” value is given as “YES (An arbitrary threshold of >3 fold over background mean fluorescence intensity was chosen to describe confirmed re-tests. Where binding was detected data are indicated as “YES”)”. The “Binding to CCL5_HUMAN, YSD” value in test [1] is listed as “YES (An arbitrary threshold of >3 fold over background mean fluorescence intensity was chosen to describe confirmed re-tests. Where binding was detected data are indicated as “YES”)”. In test [9], the “Binding to CCL25_HUMAN, YSD” value is “YES (An arbitrary threshold of >3 fold over background mean fluorescence intensity was chosen to describe confirmed re-tests. Where binding was detected data are indicated as “YES”)”. In addition, the “Binding to CCL17_HUMAN, YSD” value in test [6] is given as “YES (An arbitrary threshold of >3 fold over background mean fluorescence intensity was chosen to describe confirmed re-tests. Where binding was detected data are indicated as “YES”)”. The “Binding to CCL11_HUMAN, YSD” value in [7] is on record as “YES (An arbitrary threshold of >3 fold over background mean fluorescence intensity was chosen to describe confirmed re-tests. Where binding was detected data are indicated as “YES”)”.

B4: P1215_AMBPA: tick CKBP, Amblyomma parvum (protein, listed as Amblyomma parvum)
chain: KTDTKNAAGELPPKVVIPGCEDPATTKAPLPDEPPYYGITIDKDGCQRKVLGSSQRQQRKVQNGRKLDGKKRGRRPVFVDLELTVDCKRKCNGTYSQLPDGENCLVSDGYPYGRWGTIKGGCYQGNCSSGQCHRGEKKVNCYLPKNITNDVPKSLNLAE
Regarding B4, in test [8], the “Binding to CCL18_HUMAN, YSD” value is reported as “YES (An arbitrary threshold of >3 fold over background mean fluorescence intensity was chosen to describe confirmed re-tests. Where binding was detected data are indicated as “YES”)”. Moreover, the “Binding to CXCL12_HUMAN, YSD” value in [10] was “YES (An arbitrary threshold of >3 fold over background mean fluorescence intensity was chosen to describe confirmed re-tests. Where binding was detected data are indicated as “YES”)”. For the same molecule, the “Binding to CCL5_HUMAN, YSD” value in [1] is reported as “YES (An arbitrary threshold of >3 fold over background mean fluorescence intensity was chosen to describe confirmed re-tests. Where binding was detected data are indicated as “YES”)”. Besides, the “Binding to CCL11_HUMAN, YSD” value in test [7] is “YES (An arbitrary threshold of >3 fold over background mean fluorescence intensity was chosen to describe confirmed re-tests. Where binding was detected data are indicated as “YES”)”.

B5: P1220_IXORI: tick CKBP, Ixodes ricinus (protein, listed as Ixodes ricinus)
chain: GSTPSAMKTEDILKVLGSTSSLENHTDSSHCRYQELLDITKNIENAGFLAINCQRSCPNGKQTMVEGYGCIFKIKHATKRGKVKVKEGSCRKGACVRGSTRPPWRLLVLLGESKEEEFL
Take B5: in [9], the “Binding to CCL25_HUMAN, YSD” value is reported as “YES (An arbitrary threshold of >3 fold over background mean fluorescence intensity was chosen to describe confirmed re-tests. Where binding was detected data are indicated as “YES”)”.

The values are drawn from patent publication US20200247855A1, “THERAPY AND DIAGNOSTICS” (OXFORD UNIVERSITY INNOVATION LIMITED, priority 2017, published 2020).
